The target in one data set is T1, ParBm (Thermus thermophilus HB27, UniProt Q746H2 1-297).
T1 sequence: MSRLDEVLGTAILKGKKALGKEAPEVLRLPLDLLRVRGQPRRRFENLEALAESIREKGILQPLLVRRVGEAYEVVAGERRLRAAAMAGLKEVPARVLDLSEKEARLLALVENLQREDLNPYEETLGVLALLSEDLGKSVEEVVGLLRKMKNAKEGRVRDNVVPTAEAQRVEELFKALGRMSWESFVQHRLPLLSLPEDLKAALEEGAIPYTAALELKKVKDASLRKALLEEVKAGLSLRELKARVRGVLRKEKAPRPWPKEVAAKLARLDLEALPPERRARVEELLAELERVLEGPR
The experiment in a line: EMSA; poly(dI-dC); WT competitor competes much better than mutant; 50 mM KCl, 10 mM Tris-HCl pH 7.0, 1 mM EDTA, 1 mM DTT, 4% glycerol, 0.02 ug/ul poly(dI-dC), 25 ul, 15 pmol FAM probe, 0 or 200 pmol ParB (competition), 25 C 30. The conditions noted are these: protein: recombinant; tags: His tag implied (pET21a, Ni-IDA); chain copies: 2; blunt. (In general: A gel shift assay detects complexes by their altered migration in electrophoresis.)

For the next data set, the target named is T2, ParBc (Thermus thermophilus HB27, UniProt Q72H91 1-269).
T2 sequence: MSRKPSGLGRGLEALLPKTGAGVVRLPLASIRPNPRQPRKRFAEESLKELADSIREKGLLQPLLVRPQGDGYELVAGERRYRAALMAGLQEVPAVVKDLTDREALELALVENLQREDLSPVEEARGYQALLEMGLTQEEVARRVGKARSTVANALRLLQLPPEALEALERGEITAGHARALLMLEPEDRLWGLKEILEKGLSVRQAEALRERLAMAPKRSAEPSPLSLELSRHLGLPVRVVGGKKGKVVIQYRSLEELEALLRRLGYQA
The data set is described as above. The conditions noted are these: protein: recombinant; tags: His tag implied (pET21a, Ni-IDA); chain copies: 2; blunt.

B1: WT parSm 18-bp probe (dsDNA)
DNA 1: GCAAGGACGCGTCCTTCA
DNA 2: TGAAGGACGCGTCCTTGC
For the molecule B1, the binding result with ParBm is on record as “binds”.

B2: WT parSc 25-bp probe (dsDNA)
DNA 1: TGTTTCCCGTGAAACATCAGGCGCC
DNA 2: GGCGCCTGATGTTTCACGGGAAACA
In the case of B2, in the data set with ParBc, the binding result is given as “binds”.

The values above are taken from article PMC4409726, “Characterization of chromosomal and megaplasmid partitioning loci in Thermus thermophilus HB27”.
